Where only a bound is given, the exact number is not on record here.

These results are taken from patent publication US20140294861A1 (University of Pennsylvania, published 2014).

In test [1] the target is T1, human B7-H4 expressed at the cell surface (human, UniProt Q7Z7D3 25-282).
T1 sequence (looked up): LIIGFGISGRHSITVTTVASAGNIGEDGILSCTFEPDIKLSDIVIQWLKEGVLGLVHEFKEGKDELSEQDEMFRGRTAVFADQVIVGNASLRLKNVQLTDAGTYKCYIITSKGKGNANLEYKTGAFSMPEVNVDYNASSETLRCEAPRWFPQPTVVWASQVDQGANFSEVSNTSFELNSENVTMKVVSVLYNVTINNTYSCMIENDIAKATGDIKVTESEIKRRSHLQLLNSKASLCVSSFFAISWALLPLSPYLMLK
The test can be described thus: cell-based or functional assay.

In test [2] the target is T1, human B7-H4 expressed at the cell …. Put plainly: flow cytometry on macrophages.
The target of test [3] is T2, recombinant B7-H4 protein (extracellular domain, IgC+IgV, fused to 6xHIS Tag) (human, UniProt Q7Z7D3 29-259, biotinylated in the capture ELISA (site not stated)).
T2 construct: also called rB7-H4; rhB7-H4
T2 sequence: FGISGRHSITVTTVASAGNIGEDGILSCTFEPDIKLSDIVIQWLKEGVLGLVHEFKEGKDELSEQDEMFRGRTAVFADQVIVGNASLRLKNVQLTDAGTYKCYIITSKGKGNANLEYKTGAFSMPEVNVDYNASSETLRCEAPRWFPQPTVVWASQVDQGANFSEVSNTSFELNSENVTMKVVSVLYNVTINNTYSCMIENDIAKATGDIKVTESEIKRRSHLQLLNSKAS
The test can be described thus: capture ELISA, immobilized scFv, biotinylated rB7-H4, SA-HRP. On the procedure: FIG. 6A is a schematic representation of protein-based (FIG. 6B) and cell-based isolation (FIG. 6C) strategies. Protein-based and cell-based isolated anti-B7-H4 scFvs were plastic-immobilized and incubated with serial dilutions of biotinylated recombinant B7-H4 (black diamonds) or irrelevant control antigen (BSA, grey triangles). Protein binding to scFv was detected with SA-HRP. Colorimetric signal was developed with TMB substrate solution, quenched with sulfuric acid and read at 450 nm on a Biotek ELISA reader.
The yeast-display scFv library derived from ovarian cancer patients was first screened by magnetic and flow sorting for anti-B7-H4 scFv using progressively decreasing concentrations of human biotinylated B7-H4 recombinant protein (rhB7-H4). Briefly, the library was enriched magnetically 3 times for scFv that bound to 1 ug/ml biotinylated rhB7-H4, and two times flow sorted with 1 ug/ml and 0.5 ug/ml biotinylated rhB7-H4. Selected yeast-display scFv were flow sorted for c-myc/B7-H4 double positive clones. […] Binding to serial dilutions of biotinylated rB7-H4 or control protein was detected using streptavidin-HRP. Colorimetric signals were developed with TMB substrate solution quenched with sulfuric acid and read at 450 nm on a […] Sequencing of scFv clones 26 and 56 was identified 2 unique clones that were then produced and Ni purified.

B1: anti-B7H4 scFv clone 26 (scFv)
scFv: DIVMTQTPATLSVSPGKRATLSCRASQSVSSNYLAWYQQKPGQAPRLLIYGASRRATGIPDRFSGSGSGTDFTLTISSLQAEDVAVYYCQQYGSSPRTFGQGTKLEIKGGSSRSSSSGGGGSGGGGQVTLKESGAEVKNPGSSVKVSCKASGGTFSSYAISWLRQAPGQGLEWMGWINPNSGGSDYAQRFQGRVTMTRDTSINTVYMELSRLRSDDTAVYYCARVEKRGYYYGMDVWGQGTMVTVSSFEGSEQ
Turning to B1, the “IFN-γ secretion of MART-1 TCR T cells in the presence of B7-H4+ TAMs” value in test [1] came out at 1.5 fold.

B2: anti-B7H4 scFv clone 3#68 (scFv)
scFv: QPGLTQPPSASGTPGQRVTISCSGSSSNIGSNYVYWYQQFPGTAPKLLIYRNNQRPSGVPDRFSGSKSGTSASLAISGLRSEDEADYYCAAWDDSLSVWVFGGGTKVTVLGGSSRSSSSGGSGSGGGGQVTLKESGAEVKNPGSSVKVSCKASGGTFSSYAISWLRQAPGQGLEWMGWINPNSGGSDYAQRFQGRVTMTRDTSINTVYMELSRLRSDDTAVYYCARVEKRGYYYGMDVWGQGTMVTVSSFEGSEQ
Consider B2, for which the “IFN-γ production of MART-1 TCR T cells in the presence of B7-H4+ TAMs” value in test [1] was > 2 fold.

B3: anti-B7H4 scFv clone 56 (scFv)
scFv: QPVLTQSHSVSESPGKTVTITCTGSGGNIATQYVQWYQQRPGSGPTTVIYDDDQRPSGVPDRFTGSIDSSSNSASLTISGLKTEDEADYYCQSYDSTNHGVFGGGAKVTVLGGSSRSSSSGGGGSGGGGQVQLQQWGPGLVKPSETLSLTCTVSGGSISSSSYYWGWIRQPPGKGLEWIGSIYYSGSTYYNPSLKSRVTISVDTSKNQFSLKLSSVTAADTAVYYCARLSKGYSSSWAYSYYGPDAWGQGTMVTVSSFEGSEQ
notes: Human scFv from a yeast-display library, made soluble from the yeast secretion vector p416-BCCP; Soluble scFv was detected through V5 and purified on Ni; also called scFv #56; 56 scFv
In the case of B3, the binding result in test [2] and in test [3] was “binds” each time.

B4: anti-B7H4 scFv clone 3#54 (scFv)
scFv: RPVLTQPPSAAGTPGQRVTISCSGSSSNIGSNYVYWYQQLPGMAPKLLIYTNNQRPSGVPGRFSGSKSGTSASLAISGLRSEDEADYYCAAWDDSLNGWVFGGGTELTVLGGSSRSSSSGGGGSGGGGQVQLQESGPGLVKPSETLSLTCNVSGRSVSSGFYWSWIRQRPGKGLEWVGSIYRSGLTYYNPSLKSRVTISVDTSKNQFSLKLSSVTAADTAVYYCARATPWYYYGMDVWGQGTTVTVSSFEGSEQ
With B4, in test [1], the “IFN-γ production of MART-1 TCR T cells in the presence of B7-H4+ TAMs” value was > 2 fold.
